# In the DeepSol protein solubility set:
# Assay: soluble on expression in E. coli; label from the status in PepcDB or PDB records
row,Sequence,soluble on expression in E. coli
1,GPGSMFDLTGRKALVTGATGGLGEAIARALHAQGAIVGLHGTREEKLKELAAELGERIFVFPANLSDREAVKALGQKAEEEMGGVDILVNNAGITRDGLFVRMSDEDWDAVLTVNLTSVFNLTRELTHPMMRRRNGRIINITSIVGVTGNPGQANYCASKAGLIGFSKSLAQEIASRNVTVNCIAPGFIESAMTGKLNEKQKDAIMGNIPMKRMGVGADIAAAVVYLASDEAAYVTGQTLHVNGGMAMI,soluble
2,MSERVSEEPGLDKGDRAEECELDDPELKAIRMRVREMEEEAERLKGLSGQDKSIGVSTRPCMQTTHSKMTAGAYTEGPPQPLSAEEKKEIDKRSVYVGNVDYGSTAQDLEAHFSSCGSINRITILCDKFSGHPKGYAYIEFAERNSVDAAVAMDETVFRGRTIKVLPKRTNMPGISSTDRGGFRGRPRGNRGNYQRGQRPRGRPFRGRGRPGPLNNPY,soluble
3,MGHHHHHHSHMMAALSRKMRVAPFKVGPDYIDPGYHGMAAGHQGRNLDSVMCGIDLIGPLYAHGSANADIAVVEGVMGLFDGRIAQGQNTADAQAQGSSAEIAATLGLPVVLVVDVRGMSQSVGAVVRGFATADPHVRIAGVILNKVGTDRHAEVCREAVEAVGVRVLGAIP,not soluble
4,MTPSKTTLVERCYKYIMSNEKNWSPYTVINRKSWVKNYIEPFFKDTKLIDINPVLIQTFINTTFNNCTFSSSKIRYRFISSVLKEAYRLREINENPCDFVKLPLEHHHHHH,not soluble
5,MRIDILTLFPGMFSGVLSESILKKAQEKGAVDIRLIDFREFADNKHKTVDDYPYGGGAGMVLKPQPIFDAVEHVTAGSPGARIILLCPQGERYTQKKAEELAKETHLVLICGHYEGYDERIRQYLATDEISIGDYILTGGELGAMVIVDSVVRLLPGVLGNEASPVDDSFSSGLLEYPQYTRPADFRGMKVPDILLSGNHQLIAEWREKESLRRTFLRRPDLLDEYPLTDKQKQWLKEWEKERE,soluble
6,MSTETIEIFNNSDEWANQLKHALSKGENLALLHGLTPDILDRIYAYAFDYHEKGNITDAEIYYKFLCIYAFENHEYLKDFASVCQPKKKYQQAYDLYKLSYNYFPYDDYSVIYRMGQCQIGAKNIDNAMQCFYHIINNCEDDSVKSKAQAYIELLNDNSEDNGLEHHHHHH,not soluble
7,MNKILIIISCILIMLTAFSCRRNVFNPNIPPRTEFIEDPIANLSIPSKDATIKVTPVEASINGYDSKSGQYGKMVYGHFEHYFEFKGHYYLTAAYQYIYGYTNEVIMIGNTTLMNYPNGHILEIDVNDGFKMKEVKANLGRTVPEYTRIAKIANGNAYQDDTYIYVQDSAGANYFKTSDFKSWTDTLSTTPPAGTTKREAVTMNRVQITANNGITYTYVYTGGGLQFSIERLDNRMKQLAQRLETKFTFKEEDFNNHHMFDIGINISTGTTADYRINPVEYIENDTNYIWIGKQSPHQIWLMPVKKDGKDYLIRFVEHCAGGGYYTIKMLETNINTYKKEAETALSKALAAVASDKPQAEIEQACYESIKADANYKANQYFYDVATKMGGLQGFWVGSPAVTEAGFISPNKPLTHYVIEFIDIQQ,not soluble
8,MDTIININNNNQKYPQSAEEYHKVLCNYFITLQSAMQSTSRPSSSSPPSLPAVSSELLSSSFPTNAPESSSRDLAPKQNQFTINVVLFDEKKKKNPEENLPANGDQLATLRSLMMQINPSSPPSIPATSPQLPLAESENVPESSSTLKDHKFSLNTMLFNVKKNDAVKISLANQEQWAKFHEIGTEMMVFNSGRRLFPLLAYKVSGLDPHKLYCAGVHMIPDSAYKQEYDHDLQQWVNCLNQKKTIFKPTSEILGRIENGFKLMSLGIDMSDVKIFNIAIRKKTPLQIEKSRKPNLDKTIEVLIQYKYLPVIKIYELSNSGMEKKEIAQATFPETSFVTVSIYRNQKIKEMKTLGNKYCRTDRKQIVMEQRGELEQ,not soluble
9,MGSDKIHHHHHHGEDSEGSGTSGISPGGNSVSEEVLKHRSMVEKYAKESDILDYVPILLAIIQVESGGTMEDVMQSSESAGLPPNSLSTEASIKQGCIYFASLVKSSKELGCDQDSIIQAYNYGGGYLNYVAKNGKKHSFTLAESFSKEKSGGQKVDYPNPIAIKENGGWRYNYGNMFYCLLVKQYLTTTQFDDKTVQGIFDEAFKYEGTAYVFGGSSPATGFDCSGLTQWCYAKVGLKLPRVAQDQYDVMTHIDLKDAKPGDLIFFHSTYDAGTYVTHVGIYAGENRMFHAGNPVGWTNLTESYWQQHLIGAGRYN,not soluble
10,HEGVHRKPSLLAHPGPLVKSEETVILQCWSDVRFQHFLLHREGKFKDTLHLIGEHHDGVSKANFSIGPMMQDLAGTYRCYGSVTHSPYQLSAPSDPLDIVITGLYEKPSLSAQPGPTVLAGESVTLSCSSRSSYDMYHLSREGEAHERRFSAGPKVNGTFQADFPLGPATHGGTYRCFGSFRDSPYEWSNSSDPLLVSVTGNPSNSWPSPTEPSSETGNPRHLHAAAEQKLISEEDLNLDLVPRGSSSHHHHHHSSG,soluble
11,MFISCFDMFKIGIGPSSSHTLGPMKAGKAFVDTLEERDLLDRVTRVRADVYGSLSLTGIGHATDKAIIMGLAGFEPETVDIDAMPGFLEIVASLQRLALAGGKKTVDFSRTEGIVFHNTCLQLHENGMTITAFEGDEVLLTKAYFSIGGGFIVDKEHFGLPVEDTAVVPFPYNTAEEVLAHCDREGMSIPEFAWRNEVAANGEEAVREHLAKVWKVMQSGIERGSSAEGILPGDLRVPRRAKALRERLEATSENEPLRMMSWLNMFAMAVNEENASGGRVVTSPTNGACGVLPAVLSYWDRLVKPVGEQEVIDYLLTCGVVGALYKKNASISGAEVGCQGEVGVACSMAAAGIAQLMGATPAQAFAAAEIAMEHNLGLTCDPVCGQVQVPCIERNAIAAVTSVNAANMSLQRGSTPTVSLDQVIQTMYQTGKDMDSKYRETSLGGLAKVLMPRLMPCS,not soluble
12,MGSDKIHHHHHHMKVGIDAGGTLIKIVQEQDNQRTFKTELTKNIDQVVEWLNQQQIEKLCLTGGNAGVIAENINIPAQIFVEFDAASQGLGILLKEQGHDLADYIFANVGTGTSLHYFDGQSQRRVGGIGTGGGMIQGLGYLLSQITDYKQLTDMAQHGDRNTIDLKVRHIYKDTEPPIPGDLTAANFGHVLHHLDADFTPSNKLAAVIGVVGEVVTTMAITVAREFKTENIVYIGSSFHNNALLRKVVEDYTVLRGCKPYYVENGAFSGAIGALYLEK,not soluble
13,MAGDPMNSLIDRRLNGRNKSAVNRERFLRRYKDQIRKAVQDLIRERSISDMDQGGEINLPARDISEPSFRHGEGGDREIVHPGNREFAKGDTFDRPQGGDGGSGSQPGEGESVDQFTFSLSRAEFLNLFFEDLELPHLARTQLGDVKQQRWHRAGYTTTGSPSMLSVNRTLKASLSRRVALGVGARAALDAAEQELEAARDAGAPQAELDRLLAEVEKCAARVARVPFLDDLDLRYRNRVAVAVPMARAVMFCLMDVSGSMDEMKKDLAKRFFTLLYMFLSRKYEHVDVIFIRHTDNAEEVDEQTFFYDPKSGGTIVLSALELMHEIVQKRYSPATWNIYAAQASDGDSFGADAGKSARFLAENLLPATRYFAYIEVPDSQEARKSSLWAEYEQESASHFVMRRICERGEIFPVFHDLFKKETVLEHHHHHH,soluble
14,MGGSFGKKGASSATAAQVPLATETTPGLMSPSEKLKLSTLTTSIATSDFYASYDFMMHSIGLTSANNISLLSTGNISLQNILSEGNHFGVQPIVSSTTANASFLAGMLMAIFPKESELEVTVYFKTPSAFNPAQLTVIGSTSIGLGISDRSGLIIENGNAFGGIVKASAATETGSTYALSTSTWYICKFKMLTDDRFKVTLYSDSGTQLYSYTSTAAMFRADNATAHIGFKTQCKTATAGISLISIDLIEFKAKVSATRAKV,soluble
15,MSVATGSSETAGGASGGGARVFFQSPRGGAGGSPGSSSGSGSSREDSAPVATAAAAGQVQQQQQRRHQQGKVTVKYDRKELRKRLVLEEWIVEQLGQLYGCEEEEMPEVEIDIDDLLDADSDEERASKLQEALVDCYKPTEEFIKELLSRIRGMRKLSPPQKKSV,soluble
16,MKRDDLMQIIKRDGHVADFDPDKIYQAIIKAARTVYVIDDTWRQNLTHVTKKVVIDLEEAHVERPTINMVQSLVENRLMDAGYITIAEHYISYRLQRDLERNGYGDKIVVHLRFEQIK,soluble
17,SLCQEKHTHTHSQKHLKAVCNRLSRTIGHLSAIKRMVENDKDCSEILIQLAAVKAEVNNTAKVVLKEHLAHCMVHAIEENDIQSIEELNKAIDMFMK,soluble
18,MAHHHHHHMVDLLQRALANPFQDKLTFSPEDWDAHGLQPYQRCLREPFLRGCDTLVHKIRMQRIDFAKGILEQVVEDVQFRQKWGSLGEDYVTENAVQLTAYIFDSQERSLGGRRDPRKEDGAAQNIVYQPSTLSLGGDPALESLVTCVWFLRRDVLLLHQDFCYPVCEGRLTVFGRVQVALLRFYVRHAIKPRLLFLRQQHRGTLVVVELMMIGFAFCVERLMRPGLTCSGTVARRIRRVQGGTASSTSTGSGLVSGVHGEDSVAAASSGGGSAGGGGGGGGGGKLHCRPGRRRRWVVVM,not soluble
19,MDRLESVLKEERVFYPSEEFRKQAHIKSEEEYQRLYEESVRDPEGFWGRVASELHWFEPWRKVLEGDLPHPKWFVGGKTNLSYNALDRHVKTWRRNKAAIVWEGEPGEERVLTYHDLWREVQRFANVLKRLGVKKGDRVTIYLPMIPEAAIAMLACTRIGAVHSVVFGGFSAGALADRIKDAEAKVLITADGGFRRGGIVPLKQNADEALKDATSVEHVVVVRRTGEEVPWTPGRDHWWHELMEAAPDRCDPEPMEAEEPLFILYTSGSTGKPKGVLHTTGGYMTYVYYTTKLVFDLKDEDVYWCTADVGWITGHSYVVYGPLLNGATTVMYEGAPNWPEPDRFWRIVDKYGVTVFYTAPTAIRSFMKWGEGWPGKHRLDSLRLLGTVGEPINPEAWLWYYHVIGKGRCPIVDTWWQTETGGIMITTLPGAHAMKPGHAGKPFFGVVPEILDGEHRPVENPDEGGHLCITRPWPSMLRTVWGDPERFLQQYFSQHPGVYFSGDGAKRDKDGYYMILGRVDDVLNVAGHRLGTMEIESALVAHPAVAEAAVVGRPDPVKGEAIVAFVTLKEGHTPSDALKEELRAHVAKVIGPIARPDEIRFTDALPKTRSGKIMRRLLRQIAAGEKEIKGDTSTLEDRSVVERLKEGA,soluble
20,MGSDKIHHHHHHMHHSHHLEIYEKLREKLDKAPVGLPKTVSGVEKEILSVLFDEEEAKIAVHMPFIRFTAEQLAERTGKSLEYVEKILNEMAKKGTVWKGEKDGKTYYRLFPVIVGFAEMPFLAGPGRDARQEKLAPLWAKYRKEGFLDELGDREHAILRALPEKSTISKQSVILPYEDAEKLVRDRDYHAVGYCPCRIMARLIGEGCRHSLEVCLHFGSLGKYMVEHGYARRITADEAVEILRKSNREGLVHVTERSKGPISTICNCCSDCCAFFRAIHEAGHPKTIAHSSYVASVDSSKCIACGICMLRCPMKAVKAKINREPANVEAEKCLGCGVCVPTCPVEAIELVEREELQEWPDHLTYYQELLADRGKDPAGLF,not soluble
21,MEAYEKHYQELRQAKNIDGKPFQLIPVPVTRKVVKEADCKGSYLNFYIGNEVVLVPVYGDEHDKLGLQIIEGQFPGRRIVGIYVNELYAYGGMIHCVTQQHIELEHHHHHH,not soluble
22,MSLTLFGKTSRRPGLPRQAAGLALAACALASLPAQAKESDGDRLQGIVEPIVARQPLKLGVTVVHLLDNFYKGIAYGIVDEARRSNVEVVQVAVAGAYGNVQQQFAQLQSFKTLGVDYAVLSPAAYSGYDPVVADLARSGIKTISAGIPVNSDKIAFGVLQDDTLIGKVLGKALCDDGAQGKQVIVVPGAAGLEWPRLRYEGFKEVASACGAKLTPAAFRGEMSLADGMAQTQDLLMRTPDAEYVFTPVTFLGIGAVRAARQANRPVKVLTSAMVKENEAMIREGRLLAVASEPGVIMGRLIVQYAIREHEGLPMPPLDKPTRSVPYPHFNVPITVVDKSNEGHHHHHH,soluble
